Assay results published in patent EP2292266A1.

Assays:
[1] = target: ErbB2 (human) (UniProt P04626); assay: FRET acceptor photobleaching
[2] = target: ErbB2 (human) (UniProt P04626); assay: FRET acceptor photobleaching in fixed, HRG-treated SKBr3 cells (Alexa488 donor on Copine-III, Cy3 acceptor on ErbB2)
[3] = target: pTyr1248-containing peptide of ErbB2 (desthiobiotin-…-NH2, Tyr-phosphorylated form) (human); assay: SILAC peptide affinity pull-down from T47D lysates, MRM mass spectrometry; reference is the non-phosphorylated Tyr1248 peptide

Chain of Copine III (O75131 whole entry): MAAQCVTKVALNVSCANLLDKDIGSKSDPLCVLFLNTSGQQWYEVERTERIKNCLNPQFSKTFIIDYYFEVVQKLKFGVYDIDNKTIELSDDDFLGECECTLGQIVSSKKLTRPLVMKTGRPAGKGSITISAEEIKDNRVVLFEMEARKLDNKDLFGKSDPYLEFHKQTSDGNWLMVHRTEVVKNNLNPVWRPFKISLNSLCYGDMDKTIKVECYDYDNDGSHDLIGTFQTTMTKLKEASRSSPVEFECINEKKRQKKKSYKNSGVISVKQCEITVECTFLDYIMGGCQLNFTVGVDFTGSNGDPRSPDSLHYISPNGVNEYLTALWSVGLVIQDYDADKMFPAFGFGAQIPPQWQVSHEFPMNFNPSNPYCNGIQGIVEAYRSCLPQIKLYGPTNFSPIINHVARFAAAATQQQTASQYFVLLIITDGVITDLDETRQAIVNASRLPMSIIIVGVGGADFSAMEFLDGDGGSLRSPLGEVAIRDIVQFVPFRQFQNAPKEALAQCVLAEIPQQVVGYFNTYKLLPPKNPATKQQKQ

FRET efficiency [1]: 8
FRET efficiency (E) [2]: 8.3
quantification ratio (heavy/light peak area, pTyr peptide over Tyr peptide) [3]: 1.8
Substance: Copine III (from UniProt O75131 1-537)
